Molecular target: yeast two-hybrid activation domain-Tsg101 construct (full-length Tsg101) (human) (UniProt Q99816)
Assay: cell-based or functional assay

yeast two-hybrid activation domain-Tsg101 construct (full-length Tsg101) (human), sequence (Q99816 whole entry, the tested form may be a part): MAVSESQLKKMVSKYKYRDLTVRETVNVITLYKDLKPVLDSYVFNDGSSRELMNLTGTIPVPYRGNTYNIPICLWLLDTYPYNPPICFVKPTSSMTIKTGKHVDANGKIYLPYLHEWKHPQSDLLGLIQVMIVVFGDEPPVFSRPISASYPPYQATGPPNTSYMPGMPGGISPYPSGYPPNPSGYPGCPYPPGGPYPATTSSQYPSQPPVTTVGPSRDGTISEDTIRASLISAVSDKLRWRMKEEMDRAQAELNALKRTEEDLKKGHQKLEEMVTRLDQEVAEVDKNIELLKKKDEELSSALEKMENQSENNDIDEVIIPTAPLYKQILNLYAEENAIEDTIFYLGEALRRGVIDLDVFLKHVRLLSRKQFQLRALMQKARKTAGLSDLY

Q: “yeast two-hybrid DNA binding domain-HIV1 GAGp6 construct, wild type (from UniProt P04386 1-147; P12493 449-500)” was tested. Which β-galactosidase activity, two-hybrid liquid culture assay (fold over background) did it give?
A: > 300

— patent US7202329
